Source: the DeepSol protein solubility set

Experiment: soluble on expression in E. coli; label from the status in PepcDB or PDB records
For “MRPIEEFVYVGNQVIVPDQASLMRCYYPIIGGEGYALYQYFVAFYDNGNHRHKFATILNHLNFGMQPLQESLAVLTAVDLLAFYHSPQGIYVVELKSPLSIEQFLKHAVYSSLLEQKIGEPAVDALKPTSLHGLQDLSKRFSDVFTDERLAQKSVSEIKPKNSFDLISFRNRMQADGLVFTDEKTDVPEIYKLSETYDMNWYDTYLLSKKTAVNHRIIVKRMQVQLEQAQAQKLGGDSALTETEKKILKAVKSGKPVDYLQSAKGPGGTVTNSEKKILTDLAQRGFMDEVINLMVAYSLGRTRSTNVNREYISKVANDFDFKKIVTAEQGLLALRSGYDKKSQRAKDDSKKKTNVPSWSDPDYDNQTNQADQAKLDEIRRRALAKLEKGKE”, the “soluble on expression in E. coli” value was “soluble”. For “MRPKVSVALATYNGEKYIEEQLESIIKQTRAPDELVICDDCSNDETINIITKKIKNAHFDVKLVSNDKNIGYVQNFSKALEMSSGDIVFLCDQDDVWLSDKIEFIINKFNTRPDIQLLIHDVDYCKEDLTPIGQTKLQRMESNFDIESDYVVGMATAVRRSFLVHCLPVPSAPEVTHDEWLHDCARVLGCKGIVREVLALYRRHSLNVTAPSRLNVDFVTTRHYFGNESLAFLKLFRMETDLGSPDISPLVQWLDSRKMVLLDNGFSSEDRINTFIQYEEKRLRARNSRQSILRLDRWKRLFPIYDLYRSGGYHYYCGWKSALKDLLRTYALEHHHHHH”, the “soluble on expression in E. coli” value was “soluble”. For “MRQSISNDVATISRISAVPAILQVITESTGLGFAAVARVTEDSWTACAVLDNLGFGLKPGGELELISTICHEIRASHKPVVIDHVAEDELFCAHHTPRRYNFQSYISIPIFLTDGSFFGTICALDPKPAKLTGTPIEAMMVSFARLLALQIEAEENMQRVQ”, the “soluble on expression in E. coli” value was “not soluble”. With “MRRKMIMKIIQITDTHLLPPGIAINGVDPENQLRAAVADIVEKHADADLLVMTGDLCNYGEPEAYELLRDILAPVSIPTRLMLGNHDRRPEFVAAFPEQPRDDNGYIQSFIDTEFGRLLFLDSHEADVIGGIYGADRLTWLENALESAGDLPITVFVHHPPMDCGIRHFEHIGMHDDGAIMRRLAAHPAGIRHIVFGHIHVPMAGTTAEGIAYSSGQACAHRFITDIDVVDPLWTGGNPCYRVISLGAFGLRAYDAEVGQPVLGQTPVCEGP” the “soluble on expression in E. coli” value was “not soluble”. In the case of “MRRTLVVPDVLLLGTLLAGLLLLSGCEGDYRPRAVGPIGEITVVMDSSHWTGPSGEALRANVTPWVETLPVSERSFQLRHLELTDERTYERVQDLKNVIIAAPLSDSTNETSFLRRRLSDEAEQAILDGQTAVVPKPNLWRRSQRIYYVAAASPDALAETFQSQGTQIRDTFTEATLQRMDRNMYEDDRRSALEDTLMQRHGFAVNMQSDFQIAVDTTTGSEGFVWLRRLLAQTRREFFVYYVEDVSPDQITPEWIYNTRDSLTRRHLRGNVRGFAKIDYRRPLKTEQRSFLDRYAYDSRGLWYMVAPLGGGNELRPVGGGGPFVNYTFYDQATDRVYMLDGSIFAPDNDKIDLLRQMEVMARTFRTAEGSRSPDASPTAAKLEHHHHHH”, the “soluble on expression in E. coli” value is reported as “not soluble”. For “MRSIVGDLLLLRLGDVAEGPMNQRLYRAIREAILDGAIAADTRLPATRDLAAELGIARNTVVHVYSQLQAEGYTHSRQGNGTFVTASLPDAYLASGRHARRPAIAAVRPTLSERGARIVDQVSASPYQWGAFMPGVPDLTEFPHQKFGRLFSTLWRNPHPEMLTYAYGGGLPALREALAQHLALTRSIDCDPEQIIITEGSHQAIDLATRILGGHGDLAWIENPGYWGARSVLIANGIRIEPLPVDEEGMQLPAEPVAQPPRFIFVTPSHQYPLGSVMSLARRRQLLALARSWGSWIIEDDYDSEFRFSGRPISSLQGLEPDAPVIYLGTFSKTLYPGLRVGYLVLPKALAGAFQAAHAELYREGHLVTHAVLASFIAEGHYAAHIRRMRMLYGRRRAILVNLIERRLGAQWLHPDSSDAGLHLVLDFPSGLDDKQVMQAAHARGVLTRALSRYYAEGTTPRQGLLLGYACVPENDIARKFELVLDSLAEVAQRSRA”, the “soluble on expression in E. coli” value was “not soluble”. For “MRSKRWKTSDITDYGKKRKESESCGSSSPILETQSSGGAELDEVTEDEYSSNSSSNETSDEEENSEVPNVLSITEREKSWQKLTENDLGRIRFILKYTSNTKKCVNEYFQYNHGQNNEIMKSLLLDTDGTMTAKACSECAYDLNQCHCKKPLRFINAPCEVINQVLHVENAEPTRINHVIATLFRNHIGEIFTKARTAEARASEEAQIRIQIQDNSNAFQRSYHNDPQPSSAEEHEEDIVVDG”, the “soluble on expression in E. coli” value was “not soluble”. In the case of “MRSLADFEFNNAPLCDGMILASEMIRLDFPTQFVYDELERLVSLAQEEISQLLSQDEQLEKLLALFYGEWGFTDSRGVYRLSDALWLDKVLKKRQGSAVSLGAILLWIANRLDLPLVPVIFPTQLILRIESLEGEMWLINPFNGETLDEHTLEVWLKGNISPVAELFNEDLDEADNAEVIRKLLDTLKSSLMEERQMELALRVSEALLQFNPEDPYEIRDRGLIYAQLECEHVALTDLSYFVEQCPEDPISEMIRAQINTIAHKQIVLHLEHHHHHH”, the “soluble on expression in E. coli” value is reported as “not soluble”. In the case of “MRSPDSDRPVHRMRALREAVSDADSHSRRGGRMIAREWQFALPEKKHKKKYFGNLKAEVIDAGLCCHCAACASICPVNGITAGDAPIDFPNWVKECVDCGACIKVCPRWEYTPKNGLGEYIEVVAARSKRFVGQDGAMVTEFTASALEMGIIERAIFVARDSNWRTRVVTIKTPEQLYDRKITGTKYSYADVLPALKEAVLKSEAVGFVGTPCMVSAVRKMQQAFKKFERVKLAIGLFCTENFYHHDLYKFLLEKANADLRNAVKTDIKKGKFIVEMKDGSKVRIPVKDFEEIIPSGCKVCQDFAAVESDVSVGSVGSPNRFSTVMVRTEVAKQILDYIREKDYAEFGEAKLDIVQKLCDHKMKIHPWPPKKKEEKSEELEHHHHHH”, the “soluble on expression in E. coli” value is reported as “soluble”. In the case of “MRSRHDTYNNDCDRTLVIMAQRTLAYIVSRRQSASGFTTTARARRWHV”, the “soluble on expression in E. coli” value is reported as “not soluble”. In the case of “MRTLFIGDLHLSADRLDITQAFNRFLDTELDDADALYILGDLFEVWVGDDLAAPFALELAHKLKQVSQTLPIFFIHGNRDFMLGKRFAEAAGMQLLPEVTCIELYGVKTVILHGDSLCTLDKAYQRFRKLRSFACARWLYSCLPKKRRQAIANKIRSNSQSSNQQKSYVIMDVEPSAVNALFVKTHTTRMIHGHTHRPAIHIVDNACQRIVVGDWYEQGSVLSVSANGVDLKSLPFETTLEHHHHHH”, the “soluble on expression in E. coli” value is reported as “not soluble”. With “MRTLLIRYILWRNDGDPSYYNDDFKKLILFDELVDDDDVCTLIKNMRMTLSDGPLLDRLNQPVNNVEDVKRMIAISAKVARDIGRRSEIRWEDSFTILFRMIEKYFDDLMTDLYGEK” the “soluble on expression in E. coli” value was “not soluble”. In the case of “MRTLPSVLAAHLASGATTLCFAWRVTRRDGLVTGFTDHDRDLVVDGVTCKAASGISGSQSTLASGLSVTGAEVSGALSHDALSEDDLAAGLYDGAAIDHLLVNWQDPAQVLLLRRGTIGEVRAQDGVFTAEIRSLSDGLNQTRGRLLSSSCDADLGDARCGVDLTLPAHAASATVVAVEGALSLRVTGLSAFAQGAFARGRARLSSGANAGFVTEVKAHLVDAEGVLLRLWQRPPFAVAEGDGITLTAGCDKQLATCRDRFSNALNFRGFPHMPGNDFVIAVAIAGEGGYDGSLLE”, the “soluble on expression in E. coli” value is reported as “soluble”. For “MRTVALGIVAMACLVAIAHGGNFFQDAEVSWGQGRGKIVDGGRGLDLTLDRSSGSGFQSKSEYLFGKIDMQIKLVPGGWWNQELSDMSYRRMRWVQRKFMIYNYCTDAKRFPQGTPAECKLR”, the “soluble on expression in E. coli” value was “not soluble”. With “MRTVSTVAELRAALPREGVGFVPTMGYLHRGHLALVERARRENPFVVVSVFVNPLQFGPGEDYHRYPRDLERDRALLQEAGVDLLFAPGVEEMYPEGFATRVQVEGPLTALWEGAVRPGHFQGVATVVARLFLLVQPQRAYFGEKDYQQLLVVRRMVRDLGFPVEVVGVPTVREEDGLALSSRNVYLSPETRKKAPVLYRALLAMREVAGQGGSVAEALRAGEEALRAVPEFRKDYLAIVHPETLLPLSDWVAGARGIVAGRFPEARLIDNLEVYP” the “soluble on expression in E. coli” value was “soluble”. With “MRVFALQLESFKENLMQSLFNSIPKKSVIVLPEYVINPFFHHNMGLDVNEISDQSARAVEFLSQKCEELDLIVSAPVLLEEHSKIYKKIALISKESVKYYTQQRLIPYPHWDEESFFDNEKSAFKELLVFERDGLKFAPLFGFEAHFDEIWVQAKNQGVDVVLLSSVATFESNERWRLLCQMRAFCASCVVVRANRIGAYRQIIVEEDQKNEFLWKFYGDSFVALPNGAIEDSLEGKMGALNAQIDKNDIDEWAKLWHFRTIKEGLEHHHHHH” the “soluble on expression in E. coli” value was “not soluble”. In the case of “MRVLFIGDVMAEPGLRAVGLHLPDIRDRYDLVIANGENAARGKGLDRRSYRLLREAGVDLVSLGNHAWDHKEVYALLESEPVVRPLNYPPGTPGKGFWRLEVGGESLLFVQVMGRIFMDPLDDPFRALDRLLEEEKADYVLVEVHAEATSEKMALAHYLDGRASAVLGTHTHVPTLDATRLPKGTLYQTDVGMTGTYHSIIGGEVETFLARFLTGRPQPFRAAQGKARFHATELVFEGGRPVAISPYVWEEP”, the “soluble on expression in E. coli” value is reported as “soluble”. With “MRVVALGDLHANFPLLWRILRREGLADEGFRPTEALRSGRVRLVLLGDLVHPKTPRDYARLTGLEAYDPEDPFHLRLAAGAQIRELFRLKAFQEEAGDHVTILLGNHEAALLEGSPILGNRHLKHLEFHPEHGGKALPEALRSWMASFPKELVLKGVHFAHVGPVPWLQEYDGLFYAQSEAKTWWFLTPEYVERMGYRYGVYGHTPMPDGILLKDRFALIDALDLGEYLVLDPEADPPRPEVRRLHE” the “soluble on expression in E. coli” value was “soluble”. For “MRYFPLFLDLTNKPVLVVGGGEVACRKIDALLRADAKVTVISPQVAPALQAWIEQGKCHWIQHFYSSHWLDKRYVQVWATTDNPELNHQVYKDAKEQGILVNVVDDQPYCDFITPSMIERGRIQLAISSGGASPVLIRNIRETLEAVLAQNLALLADFGASKRNSIKDFLPSVDLRRQFWERFFAHPEVKNAQDRESLERIYIHLLTQSTDKVSATTWIEFGADVELLSLKALRYMQQAELVLHTQDCPFVFVDLCRRDAQRQSFNSSVELSTLLLQAQQETQNVCVLIPSGSSEYALLQGKATVLKMAQQG”, the “soluble on expression in E. coli” value was “not soluble”. In the case of “MRYLELAQLYQKLEKTTMKLIKTRLVADFLKKVPDDHLEFIPYLILGEVFPEWDERELGVGEKLLIKAVAMATGIDAKEIEESVKDTGDLGESIALAVKKKKQKSFFSQPLTIKRVYQTLVKVAETTGEGSQDKKVKYLADLFMDAEPLEAKYLARTILGTMRTGVAEGLLRDAIAMAFHVKVELVERAYMLTSDFGYVAKIAKLEGNEGLAKVQVQLGKPIKPMLAQQAASIRDALLEMGGEAEFEIKYDGARVQVHKDGSKIIVYSRRLENVTRAIPEIVEALKEAIIPEKAIVEGELVAIGENGRPLPFQYVLRRFRRKHNIEEMMEKIPLELNLFDVLYVDGQSLIDTKFIDRRRTLEEIIKQNEKIKVAENLITKKVEEAEAFYKRALEMGHEGLMAKRLDAVYEPGNRGKKWLKIKPTMENLDLVIIGAEWGEGRRAHLFGSFILGAYDPETGEFLEVGKVGSGFTDDDLVEFTKMLKPLIIKEEGKRVWLQPKVVIEVTYQEIQKSPKYRSGFALRFPRFVALRDDKGPEDADTIERIAQLYELQEKMKGKVES”, the “soluble on expression in E. coli” value is reported as “soluble”. For “MRYTGYMMEVRQLRHFVTVAEWESFTLAAQQLHIAQPALSISIKKFEQQLGVTLFKRDERKVALTHEGEVLLEHAKRILQQVNDAQLAVDELKGVVKGEVRLGAPSMMGSYFFPQIIMAFKSHFPNLKMTVIEAGTQSIRRMLLSGELDIGVILNHDLPDDLAADPLLSSQMVAVVGKNHELAERRHLTFAEFFEHELVMFKPGYFHRDFIDKVCREHKFTADFSFETNLLPMILSIVKHEYAITALLELVTSNEPEVKAIPFEPPVWLDLALAWRKEGYLSNADRTFIEFVKKYV”, the “soluble on expression in E. coli” value was “not soluble”.
